Data published in paper doi:10.1101/2024.06.16.599208, “A transcription-driven microgel network poised near the sol-gel transition”.

Molecular target: SAF-A SPRNK domain (SPRY/PNK) WT (UniProt Q00839 221-679)
Test: EMSA; 8 mM HEPES pH 7.5, 60 mM KOAc, 16 mM MgOAc; 1 h on ice; 0.125 uM RNA, 0-8 uM protein; 7% acrylamide gel; n=3
Details: protein: recombinant; (nickel IMAC); label: DY681

Chain of SAF-A SPRNK domain (SPRY/PNK) WT (Q00839 221-679): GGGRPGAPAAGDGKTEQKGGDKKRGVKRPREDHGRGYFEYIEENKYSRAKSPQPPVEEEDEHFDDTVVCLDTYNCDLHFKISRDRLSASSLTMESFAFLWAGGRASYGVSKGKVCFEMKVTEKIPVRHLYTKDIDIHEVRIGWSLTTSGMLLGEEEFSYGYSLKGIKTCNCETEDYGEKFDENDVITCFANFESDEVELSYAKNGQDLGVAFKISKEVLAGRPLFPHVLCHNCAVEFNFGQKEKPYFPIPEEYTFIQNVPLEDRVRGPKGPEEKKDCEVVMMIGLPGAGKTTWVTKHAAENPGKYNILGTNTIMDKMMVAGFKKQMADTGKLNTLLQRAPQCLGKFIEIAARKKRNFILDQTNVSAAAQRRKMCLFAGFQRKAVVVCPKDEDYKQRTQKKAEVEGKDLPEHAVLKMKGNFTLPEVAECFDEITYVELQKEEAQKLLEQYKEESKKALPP

AAAAAAAAAAAAAAAAAAAA (ssRNA) [oligoA20-DY681]
binding result: binds
